Assay results taken from paper PMC6221358, “The Zn2Cys6-type transcription factor LeuB cross-links regulation of leucine biosynthesis and iron acquisition in Aspergillus fumigatus”.

T1: LeuB DBD (LeuBM50-125YS, SPR) (Aspergillus fumigatus, UniProt Q4WI12 224-299)
T1 sequence: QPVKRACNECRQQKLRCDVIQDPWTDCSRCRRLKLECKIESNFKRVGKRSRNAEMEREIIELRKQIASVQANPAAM

B1: hapX 16 bp SPR duplex (dsDNA)
DNA 1: CCGCCGAAATCGGGAA
DNA 2: TTCCCGATTTCGGCGG
B2: leuA 16 bp SPR duplex (dsDNA)
DNA 1: GGACCGATGTCGGATC
DNA 2: GATCCGACATCGGTCC

Biological target: T1, LeuB DBD (LeuBM50-125YS, SPR)
Assay: SPR; 10 uM ZnCl2; 30 ug/ml poly(dAdT); SPR: 10 mM HEPES pH 7.4, 150 mM NaCl, 0.005% P20, 5 mM beta-mercaptoethanol, 10 uM ZnCl2, 25 C, LeuB DBD 6.25-400 nM with 30 ug/ml poly(dAdT); EMSA: as previously described (not given), 1 ug salmon sperm DNA as nonspecific or 100-fold cold probe as competitor
Settings: protein: recombinant; tags: none stated; chain copies: 2; label: biotin; 16 bp duplex

Binder	Kd [nM]
B1	160
B2	95.2
